Data on five molecules can be found in US7063946B2, “Methods, reagents, kits and apparatus for protein function analysis” (Meso Scale Technologies, LLC., priority 2001, dated 2006).

Assay [1] concerns autophosphorylation (phosphotyrosine). The assay is described as follows: In vitro kinase library screen: autophosphorylation. It counts as biochemical. The method, then:
Proteins were produced from DNA plasmids of Mock Luciferase, Promega, tyrosine kinase clone Spleen Tyrosine kinase (SYK, IMAGE ID# 3870426) and Eph receptor-A7 (EphA7, IMAGE ID# 3991628) (Incyte Genomics, CA) and immobilized on streptavidin or avidin coated NPT-IPR plates as described in the Example 7. To promote autophosphorylation in these immobilized and purified proteins, Mn++ ions were added in a 50 μl reaction containing 5 mM MgCl2, 5 mM MnCl2, 100 μM ATP, 25 mM Tris-HCl buffer pH 7.4, 0.05 mM Na3VO4, 0.004% TritonX-100, 2 mM DTT and EDTA-free protease inhibitor (Roche Molecular Biochemicals). This mixture was incubated with shaking at room temperature overnight to allow autophosphorylation. Following this incubation, wells were washed 2 times with TT-buffer and 2 times with water. Following this step, 50 ng Sulfo-TAG labeled anti-phosphotyrosine in buffer containing 25 mM Tris-HCl buffer pH 7.4, 5 mM MgCl2, 0.05 mM Na3VO4, 0.004% TritonX-100, 2 mM DTT and 0.05% IgG in a final volume of 50 μl was added followed by incubation at room temperature for 45 min. The unbound reagents were removed by one time washing with water, and the TAG label was detected in presence of 150 μl IPR assay buffer (0.4 mM Gly—Gly buffer, pH 7.8, 1 mM EDTA, 0.1 M TPA). The ECL signals were measured using an imaging plate reader.
(§1) Proteins were produced in an in vitro transcription and translation reaction as described in the Materials and Methods. […] The reaction was stopped by mixing with BB2 buffer. Biotinylated proteins from 50 μl of the mixture (representing 0.5 μl to 5 μl of TnT reaction) were immobilized onto streptavidin or avidin coated NPT-IPR plates by shaking at room temperature for 45 min. The activity of the immobilized protein towards pEY or autophosphorylation was further assayed by the methods described in examples 7 and 8.

The test system of a further assay is pEY. The assay is described as follows: In vitro kinase library screen: activity towards pEY. It counts as biochemical. The settings on record: 5 ul of expressed protein. The method, then:
Proteins were produced in an in vitro transcription and translation reaction. […] The unbound components of the reaction containing endogenous kinases were removed by three washes with TT-buffer (25 mM Tris-HCl buffer pH 7.4 and 0.004% Triton), two five minutes washings with high-salt wash buffer (25 mM Tris-HCl buffer pH 7.4, 0.004% Triton, 1M NaCl and 5 mM DTT) and 3 more washes with TT-buffer. To these immobilized and purified proteins a tyrosine kinase substrate, 5 nM pEY (poly Glu-Tyr, Sigma, MO), was added in a 50 μl reaction solution containing 5 mM MgCl2, 5 mM MnCl2, 100 μM ATP, 25 mM Tris-HCl buffer pH 7.4, 0.05 mM Na3VO4, 0.004% TritonX-100, 2 mM DTT and EDTA-free protease inhibitor (Roche Molecular Biochemicals). This mixture was incubated with shaking at room temperature overnight to allow phosphorylation of the pEY substrate by the immobilized kinases. Following this incubation, 45 μl of this mixture was transferred to a streptavidin or avidin-coated NPT IPR plate coated with biotinylated anti-phosphotyrosine antibody (PY20, Zymed labs, CA) followed by incubation for 30 minutes at room temperature to allow the binding of the phosphorylated pEY substrate to the PY20 coated NPT plate. Following this binding step, 50 ng Sulfo-TAG labeled anti-phosphotyrosine in buffer containing 25 mM Tris-HCl buffer pH 7.4, 5 mM MgCl2, 0.05 mM Na3VO4, 0.004% TritonX-100, 2 mM DTT and 0.05% IgG was added followed by incubation at room temperature for 30 mm. The unbound reagents were removed by one time washing with water, and the TAG label was detected in presence of 150 μl IPR assay buffer (0.4 mM Gly-Gly buffer, pH 7.8, 1 mM EDTA, 0.1 M TPA). The ECL signals were measured using an imaging plate reader.
as §1

B1: 4384416: IMAGE clone protein: BTK, Bruton agammaglobulinemia tyrosine kinase (protein, UniProt Q06187 2-659, looked up)
Tyrosine-protein kinase BTK: AAVILESIFLKRSQQKKKTSPLNFKKRLFLLTVHKLSYYEYDFERGRRGSKKGSIDVEKITCVETVVPEKNPPPERQIPRRGEESSEMEQISIIERFPYPFQVVYDEGPLYVFSPTEELRKRWIHQLKNVIRYNSDLVQKYHPCFWIDGQYLCCSQTAKNAMGCQILENRNGSLKPGSSHRKTKKPLPPTPEEDQILKKPLPPEPAAAPVSTSELKKVVALYDYMPMNANDLQLRKGDEYFILEESNLPWWRARDKNGQEGYIPSNYVTEAEDSIEMYEWYSKHMTRSQAEQLLKQEGKEGGFIVRDSSKAGKYTVSVFAKSTGDPQGVIRHYVVCSTPQSQYYLAEKHLFSTIPELINYHQHNSAGLISRLKYPVSQQNKNAPSTAGLGYGSWEIDPKDLTFLKELGTGQFGVVKYGKWRGQYDVAIKMIKEGSMSEDEFIEEAKVMMNLSHEKLVQLYGVCTKQRPIFIITEYMANGCLLNYLREMRHRFQTQQLLEMCKDVCEAMEYLESKQFLHRDLAARNCLVNDQGVVKVSDFGLSRYVLDDEYTSSVGSKFPVRWSPPEVLMYSKFSSKSDIWAFGVLMWEIYSLGKMPYERFTNSETAEHIAQGLRLYRPHLASEKVYTIMYSCWHEKADERPTFKILLSNILDVMDEES
Regarding B1, the ECL signal in assay [1] is 1,503,772. Further, the HTS signal with pEY is reported as 793,874.

B2: 4398416: IMAGE clone protein: Csk, c-src tyrosine kinase (protein, UniProt P41241 2-450, looked up)
Tyrosine-protein kinase CSK: SAIQAAWPSGTECIAKYNFHGTAEQDLPFCKGDVLTIVAVTKDPNWYKAKNKVGREGIIPANYVQKREGVKAGTKLSLMPWFHGKITREQAERLLYPPETGLFLVRESTNYPGDYTLCVSCEGKVEHYRIMYHASKLSIDEEVYFENLMQLVEHYTTDADGLCTRLIKPKVMEGTVAAQDEFYRSGWALNMKELKLLQTIGKGEFGDVMLGDYRGNKVAVKCIKNDATAQAFLAEASVMTQLRHSNLVQLLGVIVEEKGGLYIVTEYMAKGSLVDYLRSRGRSVLGGDCLLKFSLDVCEAMEYLEGNNFVHRDLAARNVLVSEDNVAKVSDFGLTKEASSTQDTGKLPVKWTAPEALREKKFSTKSDVWSFGILLWEIYSFGRVPYPRIPLKDVVPRVEKGYKMDAPDGCPPAVYEVMKNCWHLDAATRPTFLQLREQLEHIKTHELHL
In the case of B2, the ECL signal in assay [1] was 349,847. Also, the HTS signal with pEY is 683,039.

B3: 4537393: IMAGE clone protein: TTK protein kinase (protein, UniProt P33981 1-857, looked up)
Dual specificity protein …: MESEDLSGRELTIDSIMNKVRDIKNKFKNEDLTDELSLNKISADTTDNSGTVNQIMMMANNPEDWLSLLLKLEKNSVPLSDALLNKLIGRYSQAIEALPPDKYGQNESFARIQVRFAELKAIQEPDDARDYFQMARANCKKFAFVHISFAQFELSQGNVKKSKQLLQKAVERGAVPLEMLEIALRNLNLQKKQLLSEEEKKNLSASTVLTAQESFSGSLGHLQNRNNSCDSRGQTTKARFLYGENMPPQDAEIGYRNSLRQTNKTKQSCPFGRVPVNLLNSPDCDVKTDDSVVPCFMKRQTSRSECRDLVVPGSKPSGNDSCELRNLKSVQNSHFKEPLVSDEKSSELIITDSITLKNKTESSLLAKLEETKEYQEPEVPESNQKQWQSKRKSECINQNPAASSNHWQIPELARKVNTEQKHTTFEQPVFSVSKQSPPISTSKWFDPKSICKTPSSNTLDDYMSCFRTPVVKNDFPPACQLSTPYGQPACFQQQQHQILATPLQNLQVLASSSANECISVKGRIYSILKQIGSGGSSKVFQVLNEKKQIYAIKYVNLEEADNQTLDSYRNEIAYLNKLQQHSDKIIRLYDYEITDQYIYMVMECGNIDLNSWLKKKKSIDPWERKSYWKNMLEAVHTIHQHGIVHSDLKPANFLIVDGMLKLIDFGIANQMQPDTTSVVKDSQVGTVNYMPPEAIKDMSSSRENGKSKSKISPKSDVWSLGCILYYMTYGKTPFQQIINQISKLHAIIDPNHEIEFPDIPEKDLQDVLKCCLKRDPKQRISIPELLAHPYVQIQTHPVNQMAKGTTEEMKYVLGQLVGLNSPNSILKAAKTLYEHYSGGESHNSSSSKTFEKKRGKK
In the case of B3, the ECL signal in assay [1] is listed as 50,479. Besides, the HTS signal in the assay on pEY is recorded as 1,711.

B4: 4498209: IMAGE clone protein: EPHB1, EphB1 (protein, UniProt P54762 18-984, looked up)
Ephrin type-B receptor 1: MEETLMDTRTATAELGWTANPASGWEEVSGYDENLNTIRTYQVCNVFEPNQNNWLLTTFINRRGAHRIYTEMRFTVRDCSSLPNVPGSCKETFNLYYYETDSVIATKKSAFWSEAPYLKVDTIAADESFSQVDFGGRLMKVNTEVRSFGPLTRNGFYLAFQDYGACMSLLSVRVFFKKCPSIVQNFAVFPETMTGAESTSLVIARGTCIPNAEEVDVPIKLYCNGDGEWMVPIGRCTCKPGYEPENSVACKACPAGTFKASQEAEGCSHCPSNSRSPAEASPICTCRTGYYRADFDPPEVACTSVPSGPRNVISIVNETSIILEWHPPRETGGRDDVTYNIICKKCRADRRSCSRCDDNVEFVPRQLGLTECRVSISSLWAHTPYTFDIQAINGVSSKSPFPPQHVSVNITTNQAAPSTVPIMHQVSATMRSITLSWPQPEQPNGIILDYEIRYYEKEHNEFNSSMARSQTNTARIDGLRPGMVYVVQVRARTVAGYGKFSGKMCFQTLTDDDYKSELREQLPLIAGSAAAGVVFVVSLVAISIVCSRKRAYSKEAVYSDKLQHYSTGRGSPGMKIYIDPFTYEDPNEAVREFAKEIDVSFVKIEEVIGAGEFGEVYKGRLKLPGKREIYVAIKTLKAGYSEKQRRDFLSEASIMGQFDHPNIIRLEGVVTKSRPVMIITEFMENGALDSFLRQNDGQFTVIQLVGMLRGIAAGMKYLAEMNYVHRDLAARNILVNSNLVCKVSDFGLSRYLQDDTSDPTYTSSLGGKIPVRWTAPEAIAYRKFTSASDVWSYGIVMWEVMSFGERPYWDMSNQDVINAIEQDYRLPPPMDCPAALHQLMLDCWQKDRNSRPRFAEIVNTLDKMIRNPASLKTVATITAVPSQPLLDRSIPDFTAFTTVDDWLSAIKMVQYRDSFLTAGFTSLQLVTQMTSEDLLRIGITLAGHQKKILNSIHSMRVQISQSPTAMA
For B4, the ECL signal in assay [1] is given as 3,138. The HTS signal in the assay on pEY is listed as 853.

B5: 4778819: IMAGE clone protein: Hck, hemopoietic cell kinase (protein, UniProt P08103 2-524, looked up)
Tyrosine-protein kinase HCK: GGRSSCEDPGCPRSEGRAPRMGCVKSRFLRDGSKASKTEPSANQKGPVYVPDPTSSSKLGPNNSNSMPPGFVEGSEDTIVVALYDYEAIHREDLSFQKGDQMVVLEEAGEWWKARSLATKKEGYIPSNYVARVNSLETEEWFFKGISRKDAERHLLAPGNMLGSFMIRDSETTKGSYSLSVRDFDPQHGDTVKHYKIRTLDSGGFYISPRSTFSSLQELVLHYKKGKDGLCQKLSVPCVSPKPQKPWEKDAWEIPRESLQMEKKLGAGQFGEVWMATYNKHTKVAVKTMKPGSMSVEAFLAEANLMKSLQHDKLVKLHAVVSQEPIFIVTEFMAKGSLLDFLKSEEGSKQPLPKLIDFSAQISEGMAFIEQRNYIHRDLRAANILVSASLVCKIADFGLARIIEDNEYTAREGAKFPIKWTAPEAINFGSFTIKSDVWSFGILLMEIVTYGRIPYPGMSNPEVIRALEHGYRMPRPDNCPEELYNIMIRCWKNRPEERPTFEYIQSVLDDFYTATESQYQQQP
Consider B5, for which the ECL signal in assay [1] is reported as 1,198,625. In addition, the HTS signal in the assay on pEY was 958,415.
